Laboratory results from PMC7359353, “Rab27a co-ordinates actin-dependent transport by controlling organelle-associated motors and track assembly proteins” (Nature Communications, 2020).
Read-outs that look alike come from different tables or passages of the source.

Legend:
[1] = target: Mlph RBD (Homo sapiens) (UniProt Q9BV36); conditions: cited from earlier work
[2] = target: T1, GST-Rab27a-Q78L (UniProt P23640 1-221, Q78L); test: pull-down; quantitative GST pull-down: increasing concentrations of GST-Rab27a-Q78L on beads, HEK293 lysate (GFP-SPIRE1-MSFH ~50 nM); GFP depletion from the supernatant measured by fluorospectrometry at 20 °C; fraction bound fitted for Kd
T1 construct: Rab27a; rat Rab27a is stated only for the BiFC constructs; also called GTP-locked Rab27a-Q78L; active Rab27a-Q78L; source: E. coli Rosetta, purified (GSH-Sepharose 4B, size-exclusion chromatography)
T1 sequence (looked up): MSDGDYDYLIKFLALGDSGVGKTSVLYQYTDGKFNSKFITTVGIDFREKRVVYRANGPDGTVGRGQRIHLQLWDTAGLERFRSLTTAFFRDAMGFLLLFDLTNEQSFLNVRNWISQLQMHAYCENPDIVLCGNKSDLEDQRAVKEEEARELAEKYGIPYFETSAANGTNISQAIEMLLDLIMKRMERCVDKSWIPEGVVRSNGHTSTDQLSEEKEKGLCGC

[3] = target: myosin-Va GTD (Homo sapiens) (UniProt Q9Y4I1); conditions: cited from earlier work
[4] = target: myosin-Va GTD (Homo sapiens) (UniProt Q9Y4I1); conditions: cited from earlier work; remark: listed apart in the source
[5] = target: T2, vYCE-Rab27a wild type (rat, UniProt P23640 1-221); test: split reporter (BiFC, NanoBiT); BiFC in living HEK293a cells: vYNE-SPIRE1/2 and vYCE-Rab27a co-expressed with mCherry; vYFP signal normalised to mCherry, 48 h after transfection; conditions: partners not purified
T2 construct: rat Rab27a; also called wild-type Rab27a; WT; source: HEK293a, transfected, in living cells
T2 sequence (looked up): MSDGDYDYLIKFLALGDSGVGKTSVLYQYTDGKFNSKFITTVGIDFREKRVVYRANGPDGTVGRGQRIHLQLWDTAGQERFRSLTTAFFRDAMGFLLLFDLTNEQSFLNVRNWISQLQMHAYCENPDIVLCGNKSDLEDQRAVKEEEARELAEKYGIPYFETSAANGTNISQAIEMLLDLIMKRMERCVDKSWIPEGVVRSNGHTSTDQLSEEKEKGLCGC

[6] = target: T3, vYCE-Rab27a Q78L (rat, UniProt P23640 1-221, Q78L); test: as above; conditions: partners not purified
T3 construct: rat Rab27a; also called Q78L mutant; source: HEK293a, transfected, in living cells
T3 sequence (looked up): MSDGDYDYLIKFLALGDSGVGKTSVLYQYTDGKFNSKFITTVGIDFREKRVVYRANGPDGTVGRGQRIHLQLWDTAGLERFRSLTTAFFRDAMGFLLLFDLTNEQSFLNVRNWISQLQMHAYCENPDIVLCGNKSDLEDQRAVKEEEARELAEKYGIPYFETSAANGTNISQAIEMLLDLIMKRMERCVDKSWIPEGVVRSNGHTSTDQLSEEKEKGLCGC

Sequence of myosin-Va GTD (Homo sapiens) (Q9Y4I1 1448-1855): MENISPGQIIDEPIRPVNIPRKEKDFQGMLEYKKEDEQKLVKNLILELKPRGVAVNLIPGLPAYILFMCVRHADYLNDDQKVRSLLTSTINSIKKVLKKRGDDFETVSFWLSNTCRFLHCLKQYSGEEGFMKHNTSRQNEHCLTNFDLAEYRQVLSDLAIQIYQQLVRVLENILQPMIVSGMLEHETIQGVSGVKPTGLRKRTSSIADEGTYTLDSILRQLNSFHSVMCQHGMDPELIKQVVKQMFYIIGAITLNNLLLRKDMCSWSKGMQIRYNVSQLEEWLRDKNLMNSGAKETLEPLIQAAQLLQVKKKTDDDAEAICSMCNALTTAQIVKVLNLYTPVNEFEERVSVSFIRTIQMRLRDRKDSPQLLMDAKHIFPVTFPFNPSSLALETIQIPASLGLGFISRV
Sequence of Mlph RBD (Homo sapiens) (Q9BV36 4-124): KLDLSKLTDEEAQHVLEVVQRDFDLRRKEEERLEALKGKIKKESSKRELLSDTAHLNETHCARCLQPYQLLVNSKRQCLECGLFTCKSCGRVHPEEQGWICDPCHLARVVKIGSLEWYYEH

Q: For Rab27a (from UniProt P51159), which Kd [1] is on record?
A: Its Kd is 112 nM.

Q: For GFP-Mlph-RBD (domain or fragment), which Kd [2] is on record?
A: The Kd was 143 nM.

Q: With Mlph (from UniProt Q9BV36) as the molecule, how does the Kd [3] read?
A: Its Kd is 500 nM.

Q: Which Kd [4] does the source give for SPIRE2 (from UniProt Q8WWL2) here?
A: Its Kd is 900 nM.

B1: GFP-SPIRE1-MSFH (domain or fragment)
chain: PEEIRRSRLDVTTPESTKNLVESSMVNGGLTSQTKENGLSTSQQVPAQRKKLLRAPTLAELDSSESEEETLHKSTSSSSVSPSFPEEPVLEAVSTRKKPPKFLPISSTPQPERRQPPQRRHSIEKETPTNVRQFLPPSRQSSRSLEEFCYPVECLALTVEEVMHIRQVLVKAELEKYQQYKDIYTALKKGKLCFCCRTRRFSFFTWSYTCQFCKRPVCSQCCKKMRLPSKPYSTLPIFSLGPSALQRGESSMRSEKPSTAHHRPLRSIARFSSKSKSMDKSDEELQFPKELMEDWSTMEVCVDCKKFISEIISSSRRSLVLANKRARLKRKTQSFYMSSPGPSEYCPSERTISEI
modifications: Limits are not in the text (Fig. 6a / Supplementary Table 9). By convention, the start is just after the last WH2 (ends at 386) and the end is the C-terminus. NM_020148.2 is taken as the 742-aa …
Q: Which Kd ([2]; one partner purified) does the source give for B1 here?
A: Its Kd is 707 ± 155 nM.

B2: vYNE-SPIRE1 (natural protein, human, UniProt Q08AE8-2 1-742, looked up)
chain: MAQAAGPAGGGEPRTEAVGGEGPREPGAAGGAAGGSRDALSLEEILRLYNQPINEEQAWAVCYQCCGSLRAAARRRQPRHRVRSAAQIRVWRDGAVTLAPAADDAGEPPPVAGKLGYSQCMETEVIESLGIIIYKALDYGLKENEERELSPPLEQLIDHMANTVEADGSNDEGYEAAEEGLGDEDEKRKISAIRSYRDVMKLCAAHLPTESDAPNHYQAVCRALFAETMELHTFLTKIKSAKENLKKIQEMEKSDESSTDLEELKNADWARFWVQVMRDLRNGVKLKKVQERQYNPLPIEYQLTPYEMLMDDIRCKRYTLRKVMVNGDIPPRLKKSAHEIILDFIRSRPPLNPVSARKLKPTPPRPRSLHERILEEIKAERKLRPVSPEEIRRSRLDVTTPESTKNLVESSMVNGGLTSQTKENGLSTSQQVPAQRKKLLRAPTLAELDSSESEEETLHKSTSSSSVSPSFPEEPVLEAVSTRKKPPKFLPISSTPQPERRQPPQRRHSIEKETPTNVRQFLPPSRQSSRSLEEFCYPVECLALTVEEVMHIRQVLVKAELEKYQQYKDIYTALKKGKLCFCCRTRRFSFFTWSYTCQFCKRPVCSQCCKKMRLPSKPYSTLPIFSLGPSALQRGESSMRSEKPSTAHHRPLRSIARFSSKSKSMDKSDEELQFPKELMEDWSTMEVCVDCKKFISEIISSSRRSLVLANKRARLKRKTQSFYMSSPGPSEYCPSERTISEI
notes: human SPIRE1, cDNA NM_020148.2; also called SPIRE1 (BiFC); source: HEK293a, transfected, in living cells; not shown: enhanced Venus YFP N-terminus fragment (amino acids 1-173)
Q: Which “mean normalised BiFC (% max)” value [5] does the source give for B2 here?
A: Its value is 89.3 % max.

Q: And the “mean normalised BiFC (% max)” value [6]?
A: Its value is 75.2 % max.

B3: vYNE-SPIRE2 (natural protein, human, UniProt Q8WWL2 1-714, looked up)
chain: MARAGSCGGAAAGAGRPEPWELSLEEVLKAYEQPLNEEQAWAVCFQGCRGLRGSPGRRLRDTGDLLLRGDGSVGAREPEAAEPATMVVPLASSEAQTVQSLGFAIYRALDWGLDESEERELSPQLERLIDLMANNDSEDSGCGAADEGYGGPEEEEEAEGVPRSVRTFAQAMRLCAARLTDPRGAQAHYQAVCRALFVETLELRAFLARVREAKEMLQKLREDEPHLETPRAELDSLGHTDWARLWVQLMRELRRGVKLKKVQEQEFNPLPTEFQLTPFEMLMQDIRARNYKLRKVMVDGDIPPRVKKDAHELILDFIRSRPPLKQVSERRLRPLPPKQRSLHEKILEEIKQERRLRPVRGEGWAARGFGSLPCILNACSGDAKSTSCINLSVTDAGGSAQRPRPRVLLKAPTLAEMEEMNTSEEEESPCGEVTLKRDRSFSEHDLAQLRSEVASGLQSATHPPGGTEPPRPRAGSAHVWRPGSRDQGTCPASVSDPSHPLLSNRGSSGDRPEASMTPDAKHLWLEFSHPVESLALTVEEVMDVRRVLVKAEMEKFLQNKELFSSLKKGKICCCCRAKFPLFSWPPSCLFCKRAVCTSCSIKMKMPSKKFGHIPVYTLGFESPQRVSAAKTAPIQRRDIFQSLQGPQWQSVEEAFPHIYSHGCVLKDVCSECTSFVADVVRSSRKSVDVLNTTPRRSRQTQSLYIPNTRTLDFK
notes: human SPIRE2, cDNA AJ422077; also called SPIRE2 (BiFC); source: HEK293a, transfected, in living cells; not shown: enhanced Venus YFP N-terminus fragment (amino acids 1-173)
Q: Which “mean normalised BiFC (% max)” value [5] does the source give for B3 here?
A: Its value is 85.4 % max.

Q: And the “mean normalised BiFC (% max)” value [6]?
A: The value was 85.2 % max.
